Where no end group is shown, it is not given here.
Target: T1, mCerulean-tagged GIPC (human, UniProt O14908 1-333)
T1 sequence (looked up): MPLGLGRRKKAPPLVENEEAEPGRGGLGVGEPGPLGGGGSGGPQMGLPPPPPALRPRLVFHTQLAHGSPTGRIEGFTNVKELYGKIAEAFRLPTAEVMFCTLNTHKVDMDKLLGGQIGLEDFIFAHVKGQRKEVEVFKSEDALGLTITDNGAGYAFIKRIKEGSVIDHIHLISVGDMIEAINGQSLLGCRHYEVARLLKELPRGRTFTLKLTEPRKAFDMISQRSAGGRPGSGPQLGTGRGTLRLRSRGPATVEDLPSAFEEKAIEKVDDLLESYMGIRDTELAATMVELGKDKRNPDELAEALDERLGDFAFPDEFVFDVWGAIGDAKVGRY
Assay: FRET or BRET

## QLPERAFRALPSGSGPGEVPTSRGLSSGTLPGPGNEASRELESYC (domain or fragment, human, UniProt P48546 422-466, looked up, also: mCitrine-tagged) [mCitrine-tagged GIPR C-tail, wild-type]
  binding result: binds

— article doi:10.1101/2025.08.22.671816 (bioRxiv, 2025)
